Patent US20250002564A1 (HOSPITAL FOR SICK CHILDREN, published 2025)
Substitutions are numbered along the chain they refer to. Several values for one entry are separate records, joined by “and”; a condition that tells them apart may be missing. Equal entries are not always repeated.

B1: mAb 128 (antibody, V domains shown)
VH: QVQLVQSGAEVKKPGASVKVSCKASGYTFTHYYMHWVRQAPGQGLEWMGIINPSSSSASYSQKFQGRVTMTRDTSTSTVYMELSSLRSEDTAVYYCARDGRYGSGSYPFDYWGQGTLVTVSS
VL: DIQMTQSPSSLSASVGDRVTITCRASQNISRYLNWYQQKPGKAPKLLIYDASNLETGVPSRFSGSGSGTDFTLTISSLQPEDFATYYCQQANGFPPTFGQGTKLEIKR
B2: mAb 56 (antibody, V domains shown)
VH: QVQLVQSGAEVKKPGASVKVSCKASGYTFTSYGISWVRQAPGQGLEWMGWISAYNGNTNYAQKLQGRVTMTRDTSTSTVYMELSSLRSEDTAVYYCARDIGPIDYWGQGTLVTVSS
VL: B1 VL with N28G, R31S, N34A, E55Q, T56S, G93S, P96S, L104V
notes: also called IgG 56; Antibody 56
B3: mAb 349 (antibody, V domains shown)
VH: EVQLLESGGGLVQPGGSLRLSCAASGFTFSNYGMHWVRQAPGKGLEWVSGISSAGSITNYADSVKGRFTISRDNSKNTLYLQMNSLRAEDTAVYYCAGNHAGTTVTSEYFQHWGQGTLVTVSS
VL: DIQMTQSPSSLSASVGDRVTITCRASQSISSWLAWYQQKPGKAPKLLIYDTSNLETGVPSRFSGSGSGTDFTLTISSLQPEDFATYYCQQSYTTPWTFGQGTRLEIKR
notes: also called IgG 349; Antibody 349
B4: mAb 82 (antibody, V domains shown)
VH: QVQLVQSGAEVKKPGASVKVSCKASGGSFSTSAFYWVRQAPGQGLEWMGWINPYTGGTNYAQKFQGRVTMTRDTSTSTVYMELSSLRSEDTAVYYCARSRALYGSGSYFDYWGQGTLVTVSS
VL: B1 VL with N28V, R31N, N34A, A91S, N92F, G93S, F94P, K103R
notes: also called IgG 82; Antibody 82
B5: mAb 46 (antibody, V domains shown)
VH: EVQLLESGGGLVQPGRSLRLSCAASGFTFSSYAMSWVRQAPGKGLEWVSTIYSGGSTYYADSVKGRFTISRDNSKNTLYLQMNSLRAEDTAVYYCARGDSRDAFDIWGQGTMVTVSS
VL: B3 VL with T51A, T93S, W96F, Q100P, R103K, L104V, E105D
notes: also called IgG 46; Antibody 46
B6: mAb 160 (antibody, V domains shown)
VH: QVQLVQSGAEVKKPGASVKVSCKASGYTFTGHDMHWVRQAPGQGLEWMGIINPSGGSTSYAQKFQGRVTMTRDTSTSTVYMELSSLRSEDTAVYYCARANSLRYYYGMDVWGQGTMVTVSS
VL: B3 VL with I29V, D50A, T51A, N53S, E55Q, T56S, S91G, W96Y, R103K
notes: also called IgG 160; Antibody 160
B7: mAb 324 (antibody, V domains shown)
VH: QVQLVQSGAEVKKPGASVKVSCKASGGTFNNYGISWVRQAPGQGLEWMGWMNPNSGNTGYAQKFQGRVTMTRDTSTSTVYMELSSLRSEDTAVYYCARVGDYGDYIVSPFDLWGRGTLVTVSS
VL: B1 VL with N28S, S30T, R31T, A91S, N92Y, G93S, F94T, L104V
notes: also called IgG 324; Antibody 324
B8: mAb 236 (antibody, V domains shown)
VH: QVQLVQSGAEVKKPGASVKVSCKASGGTFTSYGINWVRQAPGQGLEWMGWMNPNSGNTGYAQKFQGRVTMTRDTSTSTVYMELSSLRSEDTAVYYCASRGIQLLPRGMDVWGQGTTVTVSS
VL: not shown
notes: also called IgG 236; Antibody 236
B9: mAb 52 (antibody, V domains shown)
VH: QVQLVQSGAEVKKPGSSVKVSCKASGYTFTSYGISWVRQAPGQGLEWMGGIIPMFGTTNYAQKFQGRVTITADKSTSTAYMELSSLRSEDTAVYYCARDRGDTIDYWGQGTLVTVSS
VL: DIQMTQSPSSLSASVGDRVTITCRASQGISNNLNWYQQKPGKAPKLLIYAASSLESGVPSRFSGSGSGTDFTLTISSLQPEDFATYYCQQGNGFPLTFGPGTKVDIKR
notes: also called IgG 52; Antibody 52
B10: mAb 368 (antibody, V domains shown)
VH: QVQLVQSGAEVKKPGSSVKVSCKASGYTFTSYDINWVRQAPGQGLEWMGAIMPMFGTANYAQKFQGRVTITADESTSTAYMELSSLRSEDTAVYYCARGSSGYYYGWGQGTLVTVSS
VL: not shown
B11: mAb 192 (antibody, V domains shown)
VH: QVQLVQSGAEVKKPGSSVKVSCKASGGTFSSYAISWVRQAPGQGLEWMGWINPNSGGANYAQKFQGRVTITADESTSTAYMELSSLRSEDTAVYYCSTYYYDSSGYSTDYWGQGTLVTVSS
VL: DIVMTQSPLSLPVTPGEPASISCRSSQSLLHSNGYNYLDWYLQKPGQSPQLLIYAASSLQSGVPDRFSGSGSGTDFTLKISRVEAEDVGVYYCMQALQTPYTFGQGTKLEIKR
B12: mAb 158 (antibody, V domains shown)
VH: QVQLVQSGAEVKKPGASVKVSCKASGYTFTGYYMHWVRQAPGQGLEWMGWINPLNGGTNFAPKFQGRVTMTRDTSTSTVYMELSSLRSEDTAVYYCARDPGGSYSNDAFDIWGQGTLVTVSS
VL: B1 VL with N28S, T56S, G93S, P96L, Q100G, L104V, E105D
notes: also called IgG 158; Antibody 158
B13: mAb 180 (antibody, V domains shown)
VH: QVQLVQSGAEVKKPGSSVKVSCKASGYTFTSYAMHWVRQAPGQGLEWMGRISPRSGGTKYAQRFQGRVTITADESTSTAYMELSSLRSEDTAVYYCAREAVAGTHPQAGDFDLWGRGTLVTVSS
VL: B11 VL with M94Q, A96Y, L97Y, Q98S, T99S
B14: mAb 254 (antibody, V domains shown)
VH: EVQLLESGGGLVQPGGSLRLSCAASGFTFSSSAMHWVRQAPGKGLEWVSAIGTGGDTYYADSVKGRFTISRDNSKNTLYLQMNSLRAEDTAVYYCAREGDGYNFYFDYWGQGTLVTVSS
VL: DIQMTQSPSSLSASVGDRVTITCRASQGISSYLAWYQQKPGKAPKLLIYDASSLQIGVPSRFSGSGSGTDFTLTISSLQPEDFATYYCLQSYSTPPWTFGQGTKVEIKR
notes: also called IgG 254; Antibody 254
B15: mAb 120 (antibody, V domains shown)
VH: QVQLVQSGAEVKKPGASVKVSCKASGYTFTSYDINWVRQAPGQGLEWMGMIDPSGGSTSYAQKFQGRVTMTRDTSTSTVYMELSSLRSEDTAVYYCAKDFGGGTRYDYWYFDLWGRGTLVTVSS
VL: EIVMTQSPATLSVSPGERATLSCRASQSVSSRYLAWYQQKPGQAPRLLIYGASTRATGIPARFSGSGSGTEFTLTISSLQSEDFAVYYCQQYYTTPRTFGQGTRLEIKR
notes: also called IgG 120; Antibody 120
B16: mAb 64 (antibody, V domains shown)
VH: EVQLLESGGGLVQPGGSLRLSCAASGFPFSQHGMHWVRQAPGKGLEWVSAIDRSGSYIYYADSVKGRFTISRDNSKNTLYLQMNSLRAEDTAVYYCARDTYGGKVTYFDYWGQGTLVTVSS
VL: B3 VL with S28G, W32H, T51A, S91T, T93S, R103K, L104V
notes: also called IgG 64; Antibody 64
B17: mAb 178 (antibody, V domains shown)
VH: QVQLVQSGAEVKKPGASVKVSCKASGYTFTDYHMHWVRQAPGQGLEWMGWINPNSGGTNYAQKFQGRVTMTRDTSTSTVYMELSSLRSEDTAVYYCARDISSWYEITKFDPWGQGTLVTVSS
VL: EIVMTQSPATLSVSPGERATLSCKASQSVSGTYLAWYQQKPGQAPRLLIYGASTRATGIPARFSGSGSGTEFTLTISSLQSEDFAVYYCLQTHSYPPTFGQGTKVEIKR
notes: also called IgG 178; Antibody 178
B18: mAb 108 (antibody, V domains shown)
VH: QVQLVQSGAEVKKPGASVKVSCKASGYIFSRYAIHWVRQAPGQGLEWMGWMNPISGNTDYAPNFQGRVTMTRDTSTSTVYMELSSLRSEDTAVYYCAKDGSQLAYLVEYFQHWGQGTLVTVSS
VL: B3 VL with S28V, S30T, S31N, W32N, T51A, N53T, T94F, W96Y, R103K, L104V
B19: 4A8 IgG (antibody, V domains shown)
VH: EVQLVESGAEVKKPGASVKVSCKVSGYTLTELSMHWVRQAPGKGLEWMGGFDPEDGETMYAQKFQGRVTMTEDTSTDTAYMELSSLRSEDTAVYYCATSTAVAGTPDLFDYYYGMDVWGQGTTVTVSS
VL: EIVMTQSPLSSPVTLGQPASISCRSSQSLVHSDGNTYLSWLQQRPGQPPRLLIYKISNRFSGVPDRFSGSGAGTDFTLKISRVEAEDVGVYYCTQATQFPYTFGQGTKVDIK
notes: also called IgG 4A8

Target: T1, SARS-CoV-2 Spike on wild-type pseudotyped virus (PsV) (SARS-CoV-2, UniProt P0DTC2 14-1273)
Experiment: cell-based or functional assay

Row | Binder | IC50 SARS-CoV2 PsV (IgG)
1 | B1 | > 50 µg/mL
2 | B2 | > 50 µg/mL
3 | B3 | > 50 µg/mL
4 | B4 | 1.6 µg/mL
5 | B5 | 2.1 µg/mL
6 | B6 | > 50 µg/mL
7 | B7 | 0.78 µg/mL
8 | B8 | 0.057 µg/mL
9 | B9 | 0.55 µg/mL
10 | B10 | > 50 µg/mL
11 | B11 | > 50 µg/mL
12 | B12 | > 50 µg/mL
13 | B13 | > 50 µg/mL
14 | B14 | > 50 µg/mL
15 | B15 | > 50 µg/mL
16 | B16 | > 50 µg/mL
17 | B17 | > 50 µg/mL
18 | B18 | > 50 µg/mL

Target: Spike of authentic SARS-CoV-2/SB2-P4-PB virus (SARS-CoV-2, UniProt P0DTC2 14-1273)
Experiment: cell-based or functional assay

Row | Binder | IC50 SARS-CoV2/SB2-P4-PB (IgG)
19 | B5 | 19 µg/mL
20 | B7 | 21 µg/mL
21 | B8 | 5.5 µg/mL
22 | B9 | 6.2 µg/mL

Target: T1, SARS-CoV-2 Spike on wild-type …
Experiment: cell-based or functional assay
Remark: another data set of the same source

Row | Binder | Median IC50
23 | B1 | > 50 µg/mL and > 333 nM
24 | B2 | > 50 µg/mL and > 333 nM
25 | B3 | > 50 µg/mL and > 333 nM
26 | B4 | 1.6 µg/mL and 11 nM
27 | B5 | 2.1 µg/mL and 14 nM
28 | B6 | > 50 µg/mL and > 333 nM
29 | B7 | 0.78 µg/mL and 5.2 nM
30 | B8 | 0.057 µg/mL and 0.38 nM
31 | B9 | 0.61 µg/mL and 4.1 nM
32 | B10 | > 50 µg/mL and > 333 nM
33 | B11 | > 50 µg/mL and > 333 nM
34 | B12 | > 50 µg/mL and > 333 nM
35 | B13 | > 50 µg/mL and > 333 nM
36 | B14 | > 50 µg/mL and > 333 nM
37 | B15 | > 50 µg/mL and > 333 nM
38 | B16 | > 50 µg/mL and > 333 nM
39 | B17 | > 50 µg/mL and > 333 nM
40 | B18 | > 50 µg/mL and > 333 nM

Target: T1, SARS-CoV-2 Spike on wild-type …
Experiment: cell-based or functional assay
Remark: another data set of the same source

Row | Binder | Median IC50
41 | B19 | > 100 µg/mL and > 0.66 µM
